Results reported in patent US20100330095A1 (U3 PHARMA, published 2010).

T1: mouse AXL (mouse, UniProt Q00993 19-888)
T1 construct: whole, on cells; Transiently expressed on HEK293T cells (pcDNA3-mAXL); also called mAXL
T1 sequence (looked up): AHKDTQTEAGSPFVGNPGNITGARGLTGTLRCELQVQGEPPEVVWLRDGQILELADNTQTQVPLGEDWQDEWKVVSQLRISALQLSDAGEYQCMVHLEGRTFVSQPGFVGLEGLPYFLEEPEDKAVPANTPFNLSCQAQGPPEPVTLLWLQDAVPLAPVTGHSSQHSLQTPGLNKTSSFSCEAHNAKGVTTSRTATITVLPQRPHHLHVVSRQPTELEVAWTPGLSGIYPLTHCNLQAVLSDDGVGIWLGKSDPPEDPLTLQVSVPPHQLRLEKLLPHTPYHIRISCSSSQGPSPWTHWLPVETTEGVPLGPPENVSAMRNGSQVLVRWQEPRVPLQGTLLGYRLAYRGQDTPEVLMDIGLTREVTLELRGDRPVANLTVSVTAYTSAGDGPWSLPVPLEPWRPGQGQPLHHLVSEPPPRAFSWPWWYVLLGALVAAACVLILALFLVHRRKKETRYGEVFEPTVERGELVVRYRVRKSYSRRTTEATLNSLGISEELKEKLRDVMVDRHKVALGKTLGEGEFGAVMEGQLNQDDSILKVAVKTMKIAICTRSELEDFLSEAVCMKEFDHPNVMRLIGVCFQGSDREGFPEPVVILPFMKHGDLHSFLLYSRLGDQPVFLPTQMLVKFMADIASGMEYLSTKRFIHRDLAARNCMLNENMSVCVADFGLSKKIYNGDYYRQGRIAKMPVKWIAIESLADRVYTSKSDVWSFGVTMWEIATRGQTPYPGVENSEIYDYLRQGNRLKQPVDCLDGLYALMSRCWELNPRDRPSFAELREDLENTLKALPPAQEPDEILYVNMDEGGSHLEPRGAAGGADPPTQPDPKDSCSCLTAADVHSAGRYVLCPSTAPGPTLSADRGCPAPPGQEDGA

T2: human Mer (human, UniProt Q12866 21-999)
T2 construct: whole, on cells; Transiently expressed on HEK293T cells; also called hMer
T2 sequence (looked up): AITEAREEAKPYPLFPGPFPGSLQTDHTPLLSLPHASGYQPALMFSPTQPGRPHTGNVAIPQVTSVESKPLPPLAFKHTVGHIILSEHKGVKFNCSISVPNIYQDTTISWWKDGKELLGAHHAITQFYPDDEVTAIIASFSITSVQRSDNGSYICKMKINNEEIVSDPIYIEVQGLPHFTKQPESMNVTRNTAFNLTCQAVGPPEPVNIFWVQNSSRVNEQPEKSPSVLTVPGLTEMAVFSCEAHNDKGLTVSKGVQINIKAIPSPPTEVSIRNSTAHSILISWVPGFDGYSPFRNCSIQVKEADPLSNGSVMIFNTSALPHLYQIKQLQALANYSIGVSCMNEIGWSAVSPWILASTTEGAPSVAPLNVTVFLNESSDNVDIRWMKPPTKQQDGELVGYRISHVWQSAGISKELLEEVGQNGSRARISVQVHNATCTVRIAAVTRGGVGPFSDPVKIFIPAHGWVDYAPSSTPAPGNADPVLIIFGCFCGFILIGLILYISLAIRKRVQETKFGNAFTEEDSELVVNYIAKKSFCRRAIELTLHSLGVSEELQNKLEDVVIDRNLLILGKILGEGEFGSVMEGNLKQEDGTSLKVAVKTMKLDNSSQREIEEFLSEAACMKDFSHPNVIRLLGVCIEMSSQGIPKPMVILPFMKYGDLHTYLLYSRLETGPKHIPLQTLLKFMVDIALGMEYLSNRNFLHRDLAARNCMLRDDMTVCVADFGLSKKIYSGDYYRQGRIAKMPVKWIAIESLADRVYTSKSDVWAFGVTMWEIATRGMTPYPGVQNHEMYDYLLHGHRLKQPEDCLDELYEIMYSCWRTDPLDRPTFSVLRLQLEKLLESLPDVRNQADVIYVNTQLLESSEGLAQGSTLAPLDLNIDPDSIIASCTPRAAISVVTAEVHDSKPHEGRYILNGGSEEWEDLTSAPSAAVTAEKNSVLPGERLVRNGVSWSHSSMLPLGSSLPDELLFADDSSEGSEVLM


Experiments:
[1] = target: T1, mouse AXL; test: flow cytometry, transiently transfected HEK293T cells
Description: (§1) FIG. 3. Flow cytometry analysis of cross-reactivity of rat-anti AXL antibodies with mouse and cynomolgus monkey AXL as well as human Mer and Sky. HEK293T fibroblasts were transiently transfected with pcDNA3, pcDNA3-hAXL, pcDNA3 mAXL, pcDNA3-cyAXL, pcDNA3-hMer, or pcDNA3-hSky. […] See text for details.
(§2) For FACS analysis, 2×10⁵ cells were harvested with 10 mM EDTA in PBS, washed once with FACS buffer (PBS, 3% FCS, 0.4% azide) and seeded on a 96 well round bottom plate. […] After incubation on ice for 1 h, cells were washed twice with chilled FACS buffer and resuspended with PE-conjugated donkey anti-rat (Jackson) secondary antibody diluted 1:50 in FACS buffer (100 μl/well) or PE-conjugated donkey anti-mouse secondary antibody for control. Protected from light, cells were incubated on ice for 30 min, washed twice with FACS buffer and analyzed using an Epics XL-MCL flow cytometer (Beckman Coulter).

[2] = target: T2, human Mer; test: as above
Description: as §1, §2

Row | binding result [1] | binding result [2] | Binder
1 | no binding (tested: 10 µg/ml) | no binding (tested: 10 µg/ml) | III 11D5 (antibody, rat IgG2a, V domains shown, rat hybridoma antibody, antagonistic) VH: EVQLQESGPGLVKPSQSLSLTCSVTGYSITSNYWGWIRKFPGNKMEWIGHITNSGNTTYNPSLKSRISISRDTSRNQFFLQLNSVTTEDTATYYCAKGAFDYWGQGVMVTVSS VL: DIQMTQSPSSMSTSLGDRVTITCRASQDIGNYLSWFQQKVGKSPRRMIYGAIKLAVGVPSRFSGSRSGSDYSLTISSLESEDMAIYYCLQYIQFPLTFGSGTKLELK
2 | no binding (tested: 10 µg/ml) | no binding (tested: 10 µg/ml) | I 11B7 (antibody, V domains shown, rat hybridoma antibody, antagonistic) VH: EVQLQESGPGLVKPSQSLSLTCSVTGYSITSNYWGWIRKFPGDKMEWMGYITYSGSTSYNPSLKSRISITRDTSKNQFFLQLNSVTSEDTATYYCAITTFYYWGQGVMVTVSS VL: DIQMTQAPSSLPASLGDRVTITCRASQDIGNYLRWFQQKPGKSPRLMISGATNLAAGVPSRFSGSRSGSDYSLTISSLESEDMADYYCLQSKESPWTFGGGTKLELK
3 | no binding (tested: 10 µg/ml) | no binding (tested: 10 µg/ml) | I 10D12 (antibody, V domains shown, rat hybridoma antibody, antagonistic; subclass G1) VH: EVQLQESGPGLVKPSQSLSLTCSVTGYSITSNYWGWIRKFPGNKMEWMGYITNSGGTAYNPSLKSRISITRDTSKNQFFLQLNSVIPEDSATYFCSRTPWDWGQGVMVTVSS VL: DIQMTQAPSSLPASLGDRVTIACRASQDIGNYLRWFQQKPGKSPRLMISGATNLAAGVPSRFSGSRSGSDYSRTISSLESEDMADYYCLQSKESPWTFGGGTKLELK
